Source: US5972599, “High affinity nucleic acid ligands of cytokines” (NeXstar Pharmaceuticals, Inc.)

Key:
TNF-alpha [1] = target: T1, TNF-alpha (Homo sapiens, UniProt P01375 P01375:77-233); experiment: filter; class I; conditions: tags: Genzyme or R&D Systems; chain copies: 3 inferred
TNF-alpha [2] = target: T1, TNF-alpha; experiment: competition; U937 cells; 3 points; conditions: tags: Genzyme or R&D Systems; chain copies: 3 inferred
Experimental: (§1) A receptor binding competition assay was used to determine the bioactivity of the RNA ligands. ^125I labelled hTNFα at 0.1 nM was incubated in 50 µl of binding medium (PBS with 0.5 mM Mg^++, 0.2% BSA, 0.02% sodium azide, 1 U/µl RNasin) for 15 min at 4° C. with serially diluted competitors at 10^-4 to 10^-11 M, and 1×10^4/µl U937 cells. Duplicate aliquots were subsequently removed, centrifuged through 2:1 dibutyl-phthalate:dinonyl-phthalate mixture to separate free and bound ^125I labelled hTNFα, and the radioactivity in the pellet was measured on a gamma counter. Nonspecific binding was determined by inclusion of a 200-fold molar excess of unlabeled TNF.

TNF-alpha [3] = target: T1, TNF-alpha; experiment: competition; U937 cells; 2'F version; conditions: tags: Genzyme or R&D Systems; chain copies: 3 inferred
Experimental: as §1

TNF-alpha [4] = target: T1, TNF-alpha; experiment: filter; 2'F version; conditions: tags: Genzyme or R&D Systems; chain copies: 3 inferred
IFN-gamma [5] = target: T2, IFN-gamma (Homo sapiens, UniProt P01579 P01579:24-161); experiment: filter; full-length; conditions: tags: Genzyme (Cambridge MA); Upstate Biotechnology for early SELEX rounds; chain copies: 2 inferred
Experimental: (§2) The determination of equilibrium dissociation constants (Kds) for RNA pools was made subsequent to rounds 5, 8, 12, and 17 to monitor the progress of each SELEX. The Kds of RNA pools for mouse IFN-gamma (Genzyme Inc., Cambridge Mass.) were also determined after rounds 8 and 17. Kds were determined for individual ligands after cloning and sequencing of RNA pools and truncations (described below). Nitrocellulose filter binding was used to determine Kds as follows: filter discs were placed into a vacuum manifold and wetted with 5 ml of mPBS buffer. ^32P-labeled-RNA was incubated with serial dilutions of IFN-gamma in binding buffer for 5–10 min at 37° C. to allow binding to occur. […] The filter discs were dried and counted in a liquid scintillation counter (Beckmann Instruments, Palo Alto Calif.). Equilibrium dissociation constants were determined by least square fitting of the data points using the Kaleidagraph™ graphics program (Synergy Software, Reading Pa.). […] Biphasic binding constants were calculated according to standard procedures. Kds were determined by least square fitting of the data points using the Kaleidagraph™ graphics program.
(§3) The Kds of individual RNAs within each group were determined by nitrocellulose filter binding as described above. The Kds were determined using either a monophasic or biphasic least squares fit of the data.

IFN-gamma [6] = target: T2, IFN-gamma; experiment: filter; biphasic 4.4/716 nM; conditions: tags: Genzyme (Cambridge MA); Upstate Biotechnology for early SELEX rounds; chain copies: 2 inferred
Experimental: as §2, §3

IFN-gamma [7] = target: T2, IFN-gamma; experiment: filter; truncate; conditions: tags: Genzyme (Cambridge MA); Upstate Biotechnology for early SELEX rounds; chain copies: 2 inferred
TNF-alpha [8] = target: T1, TNF-alpha; experiment: competition; U937 cells; conditions: tags: Genzyme or R&D Systems; chain copies: 3 inferred
Experimental: as §1

TNF-alpha [9] = target: T1, TNF-alpha; experiment: filter; orphan; conditions: tags: Genzyme or R&D Systems; chain copies: 3 inferred
IFN-gamma [10] = target: T2, IFN-gamma; experiment: filter; biphasic 3.2/314 nM; conditions: tags: Genzyme (Cambridge MA); Upstate Biotechnology for early SELEX rounds; chain copies: 2 inferred
Experimental: as §2, §3

IFN-gamma [11] = target: T2, IFN-gamma; experiment: filter; biphasic 6.8/320 nM; mPBS 1 mM Mg, 0.01% HSA, 37 C; conditions: tags: Genzyme (Cambridge MA); Upstate Biotechnology for early SELEX rounds; chain copies: 2 inferred
Experimental: as §2, §3

TNF-alpha [12] = target: T1, TNF-alpha; experiment: filter; class II; conditions: tags: Genzyme or R&D Systems; chain copies: 3 inferred
IFN-gamma [13] = target: T2, IFN-gamma; experiment: filter; biphasic 9.3/232 nM; conditions: tags: Genzyme (Cambridge MA); Upstate Biotechnology for early SELEX rounds; chain copies: 2 inferred
Experimental: as §2, §3

TNF-alpha [14] = target: T1, TNF-alpha; experiment: filter; class II; clone 28A printed with the same sequence but no Kd; conditions: tags: Genzyme or R&D Systems; chain copies: 3 inferred
IL-4 [15] = target: T3, IL-4 (Homo sapiens, UniProt P05112 P05112:25-153); experiment: filter; full-length; mPBS 1 mM Mg, 0.01% HSA, 37 C; conditions: tags: R&D Systems
IFN-gamma [16] = target: T2, IFN-gamma; experiment: filter; biphasic 8.8/384 nM; conditions: tags: Genzyme (Cambridge MA); Upstate Biotechnology for early SELEX rounds; chain copies: 2 inferred
Experimental: as §2, §3

IL-4 [17] = target: T3, IL-4; experiment: filter; full-length; conditions: tags: R&D Systems
IL-4 [18] = target: T3, IL-4; experiment: competition; 0.7 nM 125I-IL-4, H-9 cells; conditions: tags: R&D Systems
Experimental: Following incubation, the tubes were spun (150×g, 5 min, 4° C.) and the supernatant was aspirated. The cell pellet was resuspended in 200 μl RPMI-HSA. 100 μl aliquots were centrifuged through a cushion of an equal volume of phthalate oils (dibutyl/dioctyl, 1:1 v/v). The tube was rapidly frozen in dry ice/ethanol and the tip containing the cell pellet was cut off and placed in a vial for gamma counting.

IFN-gamma [19] = target: T2, IFN-gamma; experiment: filter; biphasic 1.8/750 nM; conditions: tags: Genzyme (Cambridge MA); Upstate Biotechnology for early SELEX rounds; chain copies: 2 inferred
Experimental: as §2, §3

IL-4 [20] = target: T3, IL-4; experiment: filter; truncate; conditions: tags: R&D Systems
TNF-alpha [21] = target: T1, TNF-alpha; experiment: filter; DPBS; class I; conditions: tags: Genzyme or R&D Systems; chain copies: 3 inferred
TNF-alpha [22] = target: T1, TNF-alpha; experiment: competition; 125I-hTNFa binding to U937 cells, 4 C; conditions: tags: Genzyme or R&D Systems; chain copies: 3 inferred
Experimental: as §1

T2 sequence (P01579 24-161, one chain of several): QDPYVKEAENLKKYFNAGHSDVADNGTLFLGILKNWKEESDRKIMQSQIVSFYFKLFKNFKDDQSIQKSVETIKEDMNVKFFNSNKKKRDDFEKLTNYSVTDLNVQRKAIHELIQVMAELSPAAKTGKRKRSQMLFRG
T1 sequence (P01375 77-233, one chain of several): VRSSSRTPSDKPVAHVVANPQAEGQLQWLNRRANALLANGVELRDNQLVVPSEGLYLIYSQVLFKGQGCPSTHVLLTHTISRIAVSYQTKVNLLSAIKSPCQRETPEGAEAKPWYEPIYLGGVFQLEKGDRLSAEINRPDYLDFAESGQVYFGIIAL
T3 sequence (P05112 25-153, one chain of several): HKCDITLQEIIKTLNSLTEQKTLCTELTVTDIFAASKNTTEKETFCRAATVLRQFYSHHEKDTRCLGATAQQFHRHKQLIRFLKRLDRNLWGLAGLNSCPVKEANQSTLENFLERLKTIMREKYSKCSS

B1: TNF 23A (ssRNA)
RNA: GGGAGCUCAGAAUAAACGCUCAACCUCAUCCUCGCACGCCAUCGCCUGAACCGUUCGACAUGAGGCCCGGAUCCGGC
TNF-alpha [1]
  Kd: 52 nM
TNF-alpha [2]
  Ki: ~241 nM

B2: TNF 23A 2'F (ssRNA)
RNA: GGGAGCUCAGAAUAAACGCUCAACCUCAUCCUCGCACGCCAUCGCCUGAACCGUUCGACAUGAGGCCCGGAUCCGGC
modifications: 2'-F all C and U
TNF-alpha [3]
  Ki: 14700 nM
TNF-alpha [4]
  Kd: 400 nM

B3: IFN-gamma 2'F/NH2-3 (ssRNA)
RNA: GGGAGGACGAUGCGGUUCAGAGGGUAGGUAAGUGGGAGGAAAAAUGCCGUAUCGCCUCAGACGACUCGCCCGA
modifications: 2'-F all C, 2'-NH2 all U
IFN-gamma [5]
  Kd: 106 nM

B4: IFN-gamma 2'F-28 (ssRNA)
RNA: GGGAGGACGAUGCGGAGGGUUGGGAGGGGUCCUUCUUUUCGUCUGCGUGGACCGUCAGACGACUCGCCCGA
modifications: 2'-F all C and U
IFN-gamma [5]
  Kd: 35 nM

B5: IFN-gamma 2'F-1 truncate (ssRNA)
RNA: GGGAGGACGAUGCGGACACCGUUAAUCUGAGGCCCUGUCCUAUUCCUUCACGCCUCAGA
modifications: 2'-F all C and U
IFN-gamma [6]
  Kd: 4.4 nM

## GGGAGGACGAUGCGGCAGGUAAUUACAUGAAGGUGGGUUAGGUA (ssRNA, 2'-NH2 all C and U) [IFN-gamma 2'NH2-30 truncate]
IFN-gamma [7]
  Kd: 11 nM

B6: TNF 18C (ssRNA)
RNA: GGGAGCUCAGAAUAAACGCUCAAUGUCGAGUGCGAUGGAGGAGUAGGGAUGCAUUCGACAUGAGGCCCGGAUCCGGC
TNF-alpha [8]
  Ki: 2500 nM
TNF-alpha [9]
  Kd: 460 nM

B7: IFN-gamma 2'F-6 (ssRNA)
RNA: GGGAGGACGAUGCGGUGGAGUUUUAAUCUUACUUCCUACUCUUGCUCCACUGGGUCAGACGACUCGCCCGA
modifications: 2'-F all C and U
IFN-gamma [10]
  Kd: 3.2 nM

B8: IFN-gamma 2'F-1 (ssRNA)
RNA: GGGAGGACGAUGCGGACACCGUUAAUCUGAGGCCCUGUCCUAUUCCUUCACGCCUCAGACGACUCGCCCGA
modifications: 2'-F all C and U
IFN-gamma [11]
  Kd: 6.8 nM

B9: TNF 14C (ssRNA)
RNA: GGGAGCUCAGAAUAAACGCUCAACGGCUUGCAGGUCGCCGAAAUGACCGCACAUUCGACAUGAGGCCCGGAUCCGGC
TNF-alpha [12]
  Kd: 60 nM
TNF-alpha [8]
  Ki: 930 nM

B10: TNF 14C 2'F (ssRNA)
RNA: GGGAGCUCAGAAUAAACGCUCAACGGCUUGCAGGUCGCCGAAAUGACCGCACAUUCGACAUGAGGCCCGGAUCCGGC
modifications: 2'-F all C and U
TNF-alpha [3]
  Ki: 11500 nM
TNF-alpha [4]
  Kd: 133 nM

B11: IFN-gamma 2'F-16 (ssRNA)
RNA: GGGAGGACGAUGCGGCAUCCCUAGAGCAGCCAGCCGGAAAGAAGUCACGCCUGCUCAGACGACUCGCCCGA
modifications: 2'-F all C and U
IFN-gamma [13]
  Kd: 9.3 nM

B12: TNF 4C (ssRNA)
RNA: GGGAGCUCAGAAUAAACGCUCAACUAGGCCCACCGUCCCUUCUAACAACGUCUUCGACAUGAGGCCCGGAUCCGGC
TNF-alpha [1]
  Kd: 92 nM
TNF-alpha [8]
  Ki: 1200 nM

B13: TNF 8C (ssRNA)
RNA: GGGAGCUCAGAAUAAACGCUCAAGUCCACACUUUGCCGAGCGUCCUAGUGUUCGACAUGAGGCCCGGAUCCGGC
TNF-alpha [14]
  Kd: 430 nM

B14: IL-4 2'F-9 (ssRNA)
RNA: GGGAGACAAGAAUAAACGCUCAAACGGCUGUAACAAACAAGGUGGGGGGCCACACAGAGCGGGUUCGACUUCGACAGGAGGCUCACAACAGGC
modifications: 2'-F all C and U
IL-4 [15]
  Kd: 14.7 nM

## GGGAGGACGAUGCGGAGGGUUGGGAGGGGUCCUUCUU (ssRNA, 2'-F all C and U) [IFN-gamma 2'F-28 truncate]
IFN-gamma [7]
  Kd: 53 nM

B15: IFN-gamma 2'F-27 (ssRNA)
RNA: GGGAGGACGAUGCGGAACACCCCCGGUCUGACGCUUGUUCCGAAUUCCUCCACCGUCAGACGACUCGCCCGA
modifications: 2'-F all C and U
IFN-gamma [16]
  Kd: 8.8 nM

B16: TNF 6A (ssRNA)
RNA: GGGAGCUCAGAAUAAACGCUCAACCACUGGCUAGGAACUCGAGUACUGGGUGGUUCGACAUGAGGCCCGGAUCCGGC
TNF-alpha [12]
  Kd: 120 nM
TNF-alpha [8]
  Ki: 9100 nM

B17: TNF 6A 2'F (ssRNA)
RNA: GGGAGCUCAGAAUAAACGCUCAACCACUGGCUAGGAACUCGAGUACUGGGUGGUUCGACAUGAGGCCCGGAUCCGGC
modifications: 2'-F all C and U
TNF-alpha [3]
  Ki: 8160 nM
TNF-alpha [4]
  Kd: 74 nM

B18: IL-4 2'F/NH2-9 (ssRNA)
RNA: GGGAGACAAGAAUAAACGCUCAAAGAGUGCAGGUCUGGGGCGCCACAAUUACAACGGCAAUAAUUCGACAGGAGGCUCACAACAGGC
modifications: 2'-F all C, 2'-NH2 all U
IL-4 [17]
  Kd: 3.3 nM
IL-4 [18]
  IC50: ~40 nM

B19: IFN-gamma 2'NH2-17 (ssRNA)
RNA: GGGAGGACGAUGCGGUGGUAGCGCGAUAUAGCGCUGGUAGGGUUGCCGGUGAUCAGACGACUCGCCCGA
modifications: 2'-NH2 all C and U
IFN-gamma [19]
  Kd: 1.8 nM

B20: TNF 16C (ssRNA)
RNA: GGGAGCUCAGAAUAAACGCUCAACCUGGUGGUCGUGCGGCUGUCGCCUCAAGGUUCGACAUGAGGCCCGGAUCCGGC
TNF-alpha [1]
  Kd: 200 nM
TNF-alpha [2]
  Ki: ~313 nM

B21: TNF 16C 2'F (ssRNA)
RNA: GGGAGCUCAGAAUAAACGCUCAACCUGGUGGUCGUGCGGCUGUCGCCUCAAGGUUCGACAUGAGGCCCGGAUCCGGC
modifications: 2'-F all C and U
TNF-alpha [3]
  Ki: 9190 nM
TNF-alpha [4]
  Kd: 123 nM

B22: IL-4 2'NH2-29 truncate (ssRNA)
RNA: GGGACGCUCAAGAGCUGGUGAGCCACGUAUACGGCCUUAGGGGCUUGGGCG
modifications: 2'-NH2 all C and U
IL-4 [20]
  Kd: 10 nM

B23: TNF 4A (ssRNA)
RNA: GGGAGCUCAGAAUAAACGCUCAACGCACUCGGACGGAAUCUCCGUAGGACACGUUCGACAUGAGGCCCGGAUCCGGC
TNF-alpha [12]
  Kd: 320 nM

## GGGAAACGGCUGUAACAAACAAGGUGGGGGGCCACACA (ssRNA, 2'-F all C and U) [IL-4 2'F-9 truncate]
IL-4 [20]
  Kd: 18 nM

B24: TNF 25A (ssRNA)
RNA: GGGAGCUCAGAAUAAACGCUCAAGGCCGCAUGCCCCUCCUAACAGCAUGCAACUUCGACAUGAGGCCCGGAUCCGGC
TNF-alpha [21]
  Kd: 40 nM
TNF-alpha [22]
  Ki: 21 nM
